Patent publication US20150353638A1 (INSTITUTE OF BASIC MEDICAL SCIENCES CHINESE ACADEMY OF …, published 2015)

B1: humanized anti-human DR5 monoclonal antibody AD15 (antibody, human IgG1, kappa)
heavy: not shown
light: DVVMTQSPLSLPVTPGEPASISCRSSQSLVHSNGNTYLHWYLQKPGQSPQLLIYKVSNRFSGVPDRFSGSGSGTDFTLKISRVEAEDVGVYFCFQSTHVPHTFGQGTKLEIKRTVAAPSVFIFPPSDEQLKSGTASVVCLLNNFYPREAKVQWKVDNALQSGNSQESVTEQDSKDSTYSLSSTLTLSKADYEKHKVYACEVTHQGLSSPVTKSFNRGEC
notes: Humanized from murine AD5-10 by CDR grafting; human IgG1 heavy chain constant region and kappa light chain
B2: humanized anti-human DR5 monoclonal antibody AD10 (antibody, human IgG1, kappa, V domains shown)
VH: EIQLVQSGPELKKPGASVKVSCKASGYTFTDFSMNWVRQAPGQGLKWMGWINTETGEPTYADDFKGRFALSMDTSVSTAYLQISSLKAEDTAVYFCVRIDYWGQGTTVTVSS
VL: DIVMTQSPLSLPVTPGEPASISCRSSQSLVHSNGNTYLHWYLQKPGQSPQLLIYKVSNRFSGVPDRFSGSGSGTDFTLKISRVEAEDVGVYYCFQSTHVPHTFGQGTKLEIKR
notes: as for B1
B3: humanized anti-human DR5 monoclonal antibody AD14 (antibody, human IgG1, kappa)
heavy: not shown
light: B1 light
notes: as for B1

Target: T1, antigen DR5 (human death receptor 5), immobilised on the CM5 chip (human, UniProt O14763 56-182, limits assumed)
T1 construct: The title says the antibodies are against the extracellular domain, but the construct used is not described; also called TRAIL receptor 2; TRAIL-R2
Test: SPR (Biacore X100), DR5 immobilised on CM5 chip, antibody injected as analyte

Binder | Kd [nM] | koff [s⁻¹] | kon [M⁻¹ s⁻¹]
B1 | 2.95 | 0.0097 | 3.28e+06
B2 | 3.51 | 0.0198 | 5.64e+06
B3 | 1.65 | 0.014 | 8.44e+06
